According to patent publication US20030166196A1 (published 2003):

T1: human CD5 cell differentiation marker (human, UniProt P06127 25-495)
T1 sequence: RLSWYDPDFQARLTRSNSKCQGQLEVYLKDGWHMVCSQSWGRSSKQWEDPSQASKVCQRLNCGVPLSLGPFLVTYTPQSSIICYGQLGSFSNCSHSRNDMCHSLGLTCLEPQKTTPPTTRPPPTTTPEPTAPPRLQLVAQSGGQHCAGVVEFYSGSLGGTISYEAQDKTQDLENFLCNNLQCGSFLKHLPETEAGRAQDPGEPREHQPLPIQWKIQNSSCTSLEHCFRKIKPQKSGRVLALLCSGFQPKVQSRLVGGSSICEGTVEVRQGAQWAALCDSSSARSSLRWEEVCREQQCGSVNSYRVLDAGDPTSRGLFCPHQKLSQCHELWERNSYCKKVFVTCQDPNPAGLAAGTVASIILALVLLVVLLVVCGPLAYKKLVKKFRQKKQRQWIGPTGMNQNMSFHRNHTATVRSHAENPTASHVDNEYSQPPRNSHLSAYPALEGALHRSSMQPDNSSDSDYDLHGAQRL

B1: he3Fab-rGelA50(C44) (other)
light: DIQMTQSPSSLSASVGDRVTITCRASQDINSYLSWFQQKPGKAPKTLIYRANRLESGVPSRFSGSGSGTDYTLTISSLQYEDFGIYYCQQYDESPWTFGGGTKLEIK
heavy: EIQLVQSGGGLVKPGGSVRISCAASGYTFTNYGMNWVRQAPGKGLEWMGWINTHTGEPTYADSFKGRFTFSLDDSKNTAYLQINSLRAEDTAVYFCTRRGYDWYFDVWGQGTTVTVSS
chain: GLDTVSFSTKGATYITYVNFLNELRVKLKPEGNSHGIPLLRKKCDDPGKAFVLVALSNDNGQLAEIAIDVTSVYVVGYQVRNRSYFFKDAPDAAYEGLFKNTIKTRLHFGGSYPSLEGEKAYRETTDLGIEPLRIGIKKLDENAIDNYKPTEIASSLLVVIQMVSEAARFTFIENQIRNNFQQRIRPANNTISLENKWGKLSFQIRTSGANGMFSEAVELERANGKKYYVTAVDQVKPKIALLKFVDKDPK
B2: he3 IgG (human-engineered H65 antibody, moderate-risk changes, ATCC HB 11206) (antibody, V domains shown)
VH: EIQLVQSGGGLVKPGGSVRISCAASGYTFTNYGMNWVRQAPGKGLEWMGWINTHTGEPTYADSFKGRFTFSLDDSKNTAYLQINSLRAEDTAVYFCTRRGYDWYFDVWGQGTTVTVSS
VL: DIQMTQSPSSLSASVGDRVTITCRASQDINSYLSWFQQKPGKAPKTLIYRANRLESGVPSRFSGSGSGTDYTLTISSLQYEDFGIYYCQQYDESPWTFGGGTKLEIK
notes: also called he3 antibody; humanized antibody
B3: chimeric H65 IgG (antibody, V domains shown)
VL: […]
VH: QIQLVQSGPELKKPGETVKISCKASGYTFTNYGMNWVKQAPGKGLRWMGWINTHTGEPTYADDFKGRFAFSLETSASTAYLQINNLKNEDTATYFCTRRGYDWYFDVWGAGTTVTVSS
notes: also called 125I-cH65 IgG

Key:
[1] = molecular target: T1, human CD5 cell differentiation marker; assay: cell-based or functional assay
[2] = molecular target: T1, human CD5 cell differentiation marker; assay: competition with 125I-cH65 IgG on Molt-4M cells

Binder	IC50 (pMT), whole cell cytotoxicity, CEM Cells [1]	IC50 (pMT), whole cell cytotoxicity, HSB2 Cells [1]	binding result [2]
B1	173 pMT	165 pMT	–
B2	–	–	binds
B3	–	–	binds
